Source: US20240067745A1 (ABMAX BIOTECHNOLOGY, published 2024)
Residue numbers refer to the chain shown, from its start. “And” between values parts separate entries of the source, which are not always exact repeats. Identical values can stand only once. Each block holds one binder with its values, some of them ahead of it.

Columns and labels:
complement protein C5 = target: T1, complement protein C5 (human, UniProt P01031 19-1676, limits assumed); test: indirect ELISA, C5 coated at 0.3 µg/ml
T1 construct: Purchased antigen coated on the ELISA plate; Natural C5 is processed into beta and alpha chains from one precursor; also called human C5
Experimental: The experimental method is as follows: Dilute the antigen with C5 (purchased from Nearshore Technology Co., Ltd.) to 0.3 μg/ml with PBS; add 100 μl/well of the diluted antigen to a 96-well plate, cover, overnight at 4° C.; shake off The liquid in the well was washed three times with PBS, 200 μl/well, and patted dry; blocked with 5% milk-PBS 200 μl/well for 1 hour, and tapped every 15 minutes; the liquid in the well was shaken off, washed once with PBS, 200 μl/well, and patted dry; Add purified antibody (0-10 μg/ml) in a gradient, see Table 4 for antibody name, 5% milk-PBS dilution, 100 μl/well, incubate for 1 h, tap every 15 min; shake off the liquid in the well, wash three times with PBS, 200 μl/well, pat dry; add secondary antibody, diluted in 5% milk-PBS, 100 μl/well, incubate for 1 h, tap every 15 min; preheat TMB substrate at room temperature, and turn on the microplate reader to preheat; wash 5 times with PBS, 250μl/well, the first three times 5 min, the last two times 10 min, pat dry; add 50 μl/well of TMB substrate AB each, and develop color at room temperature for 20 min; use a scanner to scan and record the picture, add 50 μl/well of stop solution, use enzyme labeling The meter reads OD450.

IL-8 = target: T2, IL-8 (UniProt P10145 28-99, limits assumed); test: indirect ELISA, factor coated at 1 µg/ml
T2 construct: Purchased coating factor
T2 sequence (looked up): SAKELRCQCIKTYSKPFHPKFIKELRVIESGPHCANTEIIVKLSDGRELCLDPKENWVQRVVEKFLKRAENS
Experimental: (§1) The specific experimental process is as follows: C5, C3, C3b, rIFN γ (recombinant human interferon γ), IL-1α, IL-1β, IL-2, IL-4 and IL-8 (purchased from Inshore Technology, respectively) were mixed with PBS. Co., Ltd.), dilute the antigen to 1 μg/ml; add 100 μl/well of the diluted antigen to a 96-well plate, cover, overnight at 4° C.; shake off the liquid in the well, wash three times with PBS, 200 μl/well, manually Pat dry; block with 200 μl/well of 5% milk, block for 1 h, tap the edge of the ELISA plate every 15 minutes to promote the reaction; shake off the liquid in the well, wash once with PBS, 200 μl/well, pat dry by hand; add different light chains Heavy chain combination antibody, diluted in 5% milk, 100 μl/well, incubated for 1 h, tap the edge of the ELISA plate every 15 min to promote the reaction; shake off the liquid in the well, wash three times with PBS, 200 μl/well, pat dry by hand; add Goat anti-human secondary antibody, diluted in 5% milk, 100 μl/well; incubate for 1 h, tap the edge of the ELISA plate every 15 min to promote the reaction; preheat the TMB substrate at room temperature, and turn on the microplate reader to preheat; wash 5 times with PBS, 250 μl/well, the first three times 5 min, the last two times 10 min, pat dry by hand; add 50 μl/well of TMB substrate AB to each well, and develop color at room temperature for 20 min; use a scanner to scan and record the pictures, add 50 μl/well of stop solution, use enzyme The standard instrument reads OD450 and archives.

IL-1α = target: T3, IL-1α (UniProt P01583 113-271); test: indirect ELISA, factor coated at 1 µg/ml
T3 construct: Purchased coating factor
T3 sequence (looked up): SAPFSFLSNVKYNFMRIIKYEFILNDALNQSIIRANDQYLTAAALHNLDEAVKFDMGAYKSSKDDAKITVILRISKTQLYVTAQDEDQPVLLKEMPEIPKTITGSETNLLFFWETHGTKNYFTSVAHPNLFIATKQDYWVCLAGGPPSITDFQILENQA
Experimental: as §1

IL-2 = target: T4, IL-2 (UniProt P60568 21-153); test: indirect ELISA, factor coated at 1 µg/ml
T4 construct: Purchased coating factor
Experimental: as §1

[1] = target: T5, rIFN γ (recombinant human interferon γ) (human, UniProt P01579 24-166, limits assumed); test: indirect ELISA, factor coated at 1 µg/ml
T5 construct: Purchased coating factor
T5 sequence (looked up): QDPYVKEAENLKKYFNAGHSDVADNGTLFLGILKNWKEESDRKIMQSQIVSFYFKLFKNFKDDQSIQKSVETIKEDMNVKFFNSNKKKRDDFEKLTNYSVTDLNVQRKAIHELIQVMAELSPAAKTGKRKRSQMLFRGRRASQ
Experimental: as §1

IL-1β = target: T6, IL-1β (UniProt P01584 117-269); test: indirect ELISA, factor coated at 1 µg/ml
T6 construct: Purchased coating factor
Experimental: as §1

IL-4 = target: T7, IL-4 (UniProt P05112 25-153); test: indirect ELISA, factor coated at 1 µg/ml
T7 construct: Purchased coating factor
T7 sequence (looked up): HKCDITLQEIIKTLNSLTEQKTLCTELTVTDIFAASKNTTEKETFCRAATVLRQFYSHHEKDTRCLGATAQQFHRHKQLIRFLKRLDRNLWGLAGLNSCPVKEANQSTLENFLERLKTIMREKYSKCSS
Experimental: as §1

C3 = target: T8, C3 (UniProt P01024 23-1663, limits assumed); test: indirect ELISA, factor coated at 1 µg/ml
T8 construct: Purchased coating factor
Experimental: as §1

T8 sequence (P01024 23-1663 limits assumed): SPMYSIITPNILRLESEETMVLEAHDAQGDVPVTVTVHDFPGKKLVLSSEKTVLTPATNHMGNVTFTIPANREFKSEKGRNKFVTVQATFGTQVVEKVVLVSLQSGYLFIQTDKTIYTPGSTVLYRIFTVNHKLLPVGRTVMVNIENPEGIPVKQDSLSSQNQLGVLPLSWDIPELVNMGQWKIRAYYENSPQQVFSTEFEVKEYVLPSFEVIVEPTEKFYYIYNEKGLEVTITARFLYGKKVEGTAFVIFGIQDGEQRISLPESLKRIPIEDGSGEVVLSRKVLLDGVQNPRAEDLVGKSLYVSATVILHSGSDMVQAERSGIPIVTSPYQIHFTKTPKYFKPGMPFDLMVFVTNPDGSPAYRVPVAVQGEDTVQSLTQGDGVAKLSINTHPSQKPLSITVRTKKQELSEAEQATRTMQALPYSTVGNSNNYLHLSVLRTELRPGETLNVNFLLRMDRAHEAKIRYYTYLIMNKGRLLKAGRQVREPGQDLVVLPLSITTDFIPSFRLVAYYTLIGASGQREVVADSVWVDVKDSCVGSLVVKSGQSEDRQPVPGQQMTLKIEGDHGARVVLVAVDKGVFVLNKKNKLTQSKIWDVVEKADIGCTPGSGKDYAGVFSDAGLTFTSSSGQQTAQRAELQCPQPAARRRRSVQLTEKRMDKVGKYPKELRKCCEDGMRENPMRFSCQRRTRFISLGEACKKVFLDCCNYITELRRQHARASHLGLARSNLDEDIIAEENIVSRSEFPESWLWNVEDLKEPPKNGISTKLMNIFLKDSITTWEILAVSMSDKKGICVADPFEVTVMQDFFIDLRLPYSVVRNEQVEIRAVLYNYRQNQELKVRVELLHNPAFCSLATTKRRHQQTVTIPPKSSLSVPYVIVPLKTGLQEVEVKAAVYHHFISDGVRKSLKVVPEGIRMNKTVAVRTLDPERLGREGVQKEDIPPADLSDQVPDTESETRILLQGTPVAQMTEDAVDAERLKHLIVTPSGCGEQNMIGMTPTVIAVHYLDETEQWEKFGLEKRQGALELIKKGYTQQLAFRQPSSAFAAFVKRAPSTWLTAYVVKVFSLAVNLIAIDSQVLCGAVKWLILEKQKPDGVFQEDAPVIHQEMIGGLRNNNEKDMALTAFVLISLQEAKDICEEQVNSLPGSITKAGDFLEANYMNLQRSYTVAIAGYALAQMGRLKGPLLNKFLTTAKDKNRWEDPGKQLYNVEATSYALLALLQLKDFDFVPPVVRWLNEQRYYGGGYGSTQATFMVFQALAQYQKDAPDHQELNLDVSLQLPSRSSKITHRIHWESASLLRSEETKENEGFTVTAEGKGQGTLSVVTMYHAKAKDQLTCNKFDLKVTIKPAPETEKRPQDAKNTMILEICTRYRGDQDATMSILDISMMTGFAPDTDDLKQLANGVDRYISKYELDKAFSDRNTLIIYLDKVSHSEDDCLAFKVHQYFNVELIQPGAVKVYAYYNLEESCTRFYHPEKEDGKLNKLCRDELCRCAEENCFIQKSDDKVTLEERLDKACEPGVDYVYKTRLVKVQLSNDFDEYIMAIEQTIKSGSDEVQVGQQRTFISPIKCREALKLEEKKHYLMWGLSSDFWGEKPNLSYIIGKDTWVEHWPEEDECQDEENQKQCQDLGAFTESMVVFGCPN
T4 sequence (P60568 21-153 limits assumed): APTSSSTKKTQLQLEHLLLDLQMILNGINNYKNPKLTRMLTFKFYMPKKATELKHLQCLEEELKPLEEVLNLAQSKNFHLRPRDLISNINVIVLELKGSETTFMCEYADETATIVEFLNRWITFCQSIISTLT
T1 sequence (P01031 19-1676 limits assumed): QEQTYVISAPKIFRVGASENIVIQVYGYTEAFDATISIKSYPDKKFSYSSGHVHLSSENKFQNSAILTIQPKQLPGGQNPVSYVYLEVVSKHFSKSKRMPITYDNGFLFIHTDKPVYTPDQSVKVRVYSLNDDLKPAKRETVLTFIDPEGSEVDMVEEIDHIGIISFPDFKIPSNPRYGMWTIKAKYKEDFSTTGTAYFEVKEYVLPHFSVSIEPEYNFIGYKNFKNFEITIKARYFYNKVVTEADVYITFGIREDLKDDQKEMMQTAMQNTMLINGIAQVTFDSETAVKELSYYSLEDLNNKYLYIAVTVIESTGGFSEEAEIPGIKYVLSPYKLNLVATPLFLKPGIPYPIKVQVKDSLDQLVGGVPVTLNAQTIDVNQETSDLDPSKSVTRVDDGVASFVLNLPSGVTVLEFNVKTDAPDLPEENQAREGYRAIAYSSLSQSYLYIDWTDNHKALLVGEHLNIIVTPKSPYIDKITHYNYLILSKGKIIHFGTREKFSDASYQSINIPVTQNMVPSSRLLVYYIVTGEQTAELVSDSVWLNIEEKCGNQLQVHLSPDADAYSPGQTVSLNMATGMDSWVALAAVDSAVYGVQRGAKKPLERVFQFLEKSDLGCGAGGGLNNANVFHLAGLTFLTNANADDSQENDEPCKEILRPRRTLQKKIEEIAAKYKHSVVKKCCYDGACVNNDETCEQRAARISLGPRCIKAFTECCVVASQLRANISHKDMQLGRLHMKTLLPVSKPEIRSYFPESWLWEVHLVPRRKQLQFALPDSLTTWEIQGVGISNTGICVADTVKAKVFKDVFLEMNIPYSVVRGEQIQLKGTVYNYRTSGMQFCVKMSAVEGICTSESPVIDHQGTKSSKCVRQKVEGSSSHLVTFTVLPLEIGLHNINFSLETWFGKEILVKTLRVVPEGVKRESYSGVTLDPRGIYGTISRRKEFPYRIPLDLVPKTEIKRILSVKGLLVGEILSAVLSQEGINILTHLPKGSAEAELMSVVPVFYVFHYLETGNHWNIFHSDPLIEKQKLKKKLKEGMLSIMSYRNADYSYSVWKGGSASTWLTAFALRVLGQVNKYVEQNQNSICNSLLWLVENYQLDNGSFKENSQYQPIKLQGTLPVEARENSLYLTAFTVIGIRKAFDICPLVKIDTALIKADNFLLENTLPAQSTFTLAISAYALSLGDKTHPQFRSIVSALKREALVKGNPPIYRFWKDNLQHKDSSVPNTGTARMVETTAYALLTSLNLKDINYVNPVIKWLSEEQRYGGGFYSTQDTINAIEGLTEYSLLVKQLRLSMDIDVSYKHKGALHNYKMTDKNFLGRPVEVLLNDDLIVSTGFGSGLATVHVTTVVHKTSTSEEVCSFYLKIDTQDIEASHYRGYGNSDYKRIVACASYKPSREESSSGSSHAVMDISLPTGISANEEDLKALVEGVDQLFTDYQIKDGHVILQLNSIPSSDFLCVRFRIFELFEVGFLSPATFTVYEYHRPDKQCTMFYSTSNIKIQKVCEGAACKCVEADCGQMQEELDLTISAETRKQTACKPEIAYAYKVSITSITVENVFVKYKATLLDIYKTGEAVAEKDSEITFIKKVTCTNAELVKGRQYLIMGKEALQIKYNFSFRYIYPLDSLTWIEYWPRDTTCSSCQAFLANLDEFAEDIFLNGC

EC50 (complement protein C5): 0.00382 µg/mL and 0.0255 nM
binding result (IL-8): no binding
binding result (IL-1α): no binding
binding result (IL-2): no binding
binding result [1]: no binding
binding result (IL-1β): no binding
binding result (IL-4): no binding
binding result (C3): no binding
B1: Improved Eculizumab monoclonal antibody H1L0 (antibody, human IgG1, kappa, V domains shown)
VH: QVQLVQSGGGVVQPGASVKVSCKASGYIFSNYWIQWVRQAPGQGLEWMGEILPGSGSTEYTENFKDRVTMTRDTSTSTVYMELSSLRSEDTAVYYCARYFFGSSPNWYFDVWGQGTLVTVSS
VL: DIQMTQSPSSLSASVGDRVTITCGASENIYGALNWYQQKPGKAPKLLIYGATNLADGVPSRFSGSGSGTDFTLTISSLQPEDFATYYCQNVLNTPLTFGQGTKVEIKR
notes: also called Improved H1L0; H1L0 (Improved)

binding result (IL-8): no binding
binding result (IL-1α): no binding
binding result (IL-2): no binding
binding result [1]: no binding
binding result (IL-1β): no binding
binding result (IL-4): no binding
binding result (C3): no binding
B2: Improved Eculizumab monoclonal antibody H3L0 (antibody, human IgG1, kappa, V domains shown)
VH: B1 VH with M70L, R72T, T74S, S77T, V79A, S84K, R87Q, S88F, E89D
VL: B1 VL
notes: also called Improved H3L0; H3L0 (Improved)
